Blank lines part the entries; values can stand above or below the sequence they belong to.
Experiments:
[1] = Biophysical characterisation of nanoparticles by dynamic light scattering (size, PDI); type: physicochemical
Protocol: The size in nm by Dynamic Light Scattering (DLS), zeta potential in mV by Electrophoretic Light Scattering (ELS), and concentration of particles per ml by Multi-Angle Dynamic Light Scattering (MADLS) of the closed linear DNA/mRNA-lipid-peptide nanoparticles was determined using the Zetasizer Ultra (Malvern). Complexes were prepared as before, except formulated in nuclease-free water rather than Opti-MEM. Samples containing 0.7 μg hpDNA were diluted in 1 ml for analysis.

[2] = system: primary human chondrocytes; experiment: Transfection of primary human chondrocytes, GFP expression by flow cytometry; type: cell-based; conditions: closed linear DNA:lipid:peptide nanoparticles, 48 h post-transfection
Protocol: (§1) Peptides identified via phage display with affinity toward primary human chondrocytes, and peptides identified in the literature with desirable chondrocyte binding characteristics were synthesised via solid-phase peptide synthetic chemistry in various conformations. A sixteen-lysine tail group was attached using standard synthesis methods (amsbio, UK).
Transfections in primary human chondrocyte cells were performed with a range of peptide:liposome:nucleic acid cargo mass ratios and N/P ratios. Transfections were performed in a 96-well plate at a density of 2000 cells per well seeded 5 days prior to transfection. Charge and mass ratio of components in the transfection complex varied; DNA and mRNA were maintained at a constant mass of 300 ng per well. […] The mass ratio of closed linear DNA:lipid and mRNA:lipid was maintained at 1:3, while the chondrocyte-cell binding peptides were in some cases altered.
(§2) Transfection complexes were formed via electrostatic interaction by vigorous pipetting, before diluting in a final volume of 200 ul per well, with a DNA concentration of 1.5 ng/ul. All dilutions were performed with OptiMEM reduced serum media. Controls included cells with no transfection complexes added (OptiMEM only), along with liposomes encapsulating nucleic acid cargo without peptide.
Transfection complexes were incubated for 30 min at RT before adding to cells. All conditions were performed in triplicate. Cells were incubated at 37° C. for 4 hours, before replacing media with growth media. 48 h post-transfection, the cells were rinsed in PBS, before incubation in 0.05% Trypsin EDTA (Gibco) to detach the cells. 48 h post-transfection, cells were resuspended in PBS for analysis by flow cytometry using the Aligent Novocyte flow cytometer.

[3] = system: primary human chondrocytes; experiment: Transfection of primary human chondrocytes, luciferase expression; type: cell-based; conditions: FIG. 3, mRNA:lipid:peptide nanoparticles, DOTMA-DOPE 2:1 + 10% cholesterol, 4 h post-transfection
Protocol: as §1
Transfections in primary human chondrocyte cells were performed with a range of peptide: liposome:nucleic acid cargo mass ratios and N/P ratios. Transfections were performed in a 96-well plate at a density of 2000 cells per well seeded 5 days prior to transfection. Charge and mass ratio of components in the transfection complex varied; DNA and mRNA were maintained at a constant mass of 300 ng per well. The molar ratio of the cationic lipid DOTMA to the phospholipid DOPE was kept at 2:1 (DD 2:1), while cholesterol was added at a molar percentage of 10% of the total lipid content. The mass ratio of closed linear DNA:lipid and mRNA:lipid was maintained at 1:3, while the chondrocyte-cell binding peptides were in some cases altered.
as §2
Transfection complexes were incubated for 30 min at RT before adding to cells. All conditions were performed in triplicate. Cells were incubated at 37° C. for 4 hours, before replacing media with growth media. 48 h post-transfection for DNA and 4 h post-transfection for RNA, the cells were rinsed in PBS, before resuspension in Reporter Lysis buffer (Promega). Plates were incubated at 4° C. for 20 minutes, before −80° C. for 40 minutes. After thawing, luciferase activity was measured following injection of the luciferase assay substrate on the ClarioSTAR plus plate reader (BMG Labtech, Aylesbury, UK). Luciferase expression was normalised to protein content using Pierce BCA Protein Assay, with absorbance measured at 562 nm. Luciferase activity was expressed as Relative Light Units per mg of protein (RLU/mg).

[4] = Ribogreen encapsulation efficiency assay; type: physicochemical; conditions: FIG. 4; mRNA:lipid:peptide nanoparticles at N/P ratio 3.98
Protocol: Encapsulation efficiency (EE %) was measured using Quant-iT™ RiboGreen™ RNA Assay Kit (Invitrogen™, Thermo Fisher Scientific, Waltham, MA, USA). Briefly, mRNA was mixed with RiboGreen™ in a total volume of 100 ul TE buffer (10 mM Tris-HCl, 1 mM EDTA, pH 7.5) per well of a 96-well plate and incubated for 10 minutes at RT in the absence of light. Lipid and peptide components were each diluted in a volume of 50 ul TE buffer before mixing thoroughly with the mRNA-Ribogreen via pipette. Nanocomplexes were incubated for 30 minutes at RT in the absence of light. Encapsulation efficiency was measured by quantifying the fluorescence (λem=520 nm, λex=480 nm) of RNA encapsulated in nanoparticles vs. the fluorescence of naked mRNA complexed with Ribogreen™ reagent using a fluorimeter (ClarioStar, BMG Labtech).

[5] = FIG. 5, closed linear DNA, DOTMA-DOPE 2:1 + 10% cholesterol
[6] = FIG. 1, DOTMA-DOPE 2:1 + 10% cholesterol
[7] = FIG. 6, mRNA, DOTMA-DOPE 2:1 + 10% cholesterol

luciferase expression ([3]; N/P ratio 3.48): 3.2E+11 RLU/mg protein | luciferase expression ([3]; N/P ratio 4.48): 4E+11 RLU/mg protein | luciferase expression ([3]; N/P ratio 7.48): 3.3E+11 RLU/mg protein | luciferase expression ([3]; N/P ratio 8.48): 2.5E+11 RLU/mg protein
Sequence: KKKKKKKKKKKKKKKKGACDWRVIIPPRPSAC [HC5 C-N]
average size by DLS [1, 5]: 100 nm | GFP expression (% of the cells expressing GFP) [2, 6]: 21% | median fluorescence intensity (MFI) [2, 6]: 1E+06

Sequence: KKKKKKKKKKKKKKKKGACHDSQLEALIKFMC [HC4 C-N]
Polydispersity Index (PDI) [1, 5]: 0.45

Sequence: KKKKKKKKKKKKKKKKGACRLDPTSYLRTFWC [HC3 C-N]
average size by DLS [1, 7]: 78 nm | Polydisperse Index (PDI) ([1]; FIG. 6 passage, printed as closed linear DNA, DOTMA-DOPE 2:1 10% cholesterol): 0.37 | GFP expression (% of the cells expressing GFP) [2, 6]: 9% | median fluorescence intensity (MFI) [2, 6]: 1E+05

Sequence: KKKKKKKKKKKKKKKKGADWRVIIPPRPSA [HC5 L-N]
encapsulation efficacy (% of mRNA encapsulated) [4]: 96.86%

Sequence: KKKKKKKKKKKKKKKKGAHDSQLEALIKFM [HC4 L-N]
average size by DLS [1, 7]: 36.65 nm

Sequence: KKKKKKKKKKKKKKKKGARLDPTSYLRTFW [HC3 L-N]
Polydispersity Index (PDI) [1, 5]: 0.2 | Polydisperse Index (PDI) [1, 7]: 0.13

Sequence: KKKKKKKKKKKKKKKKRVRRCDWRVIIPPRPSAC [HC5 C-C]
average size by DLS [1, 5]: 51.37 nm | GFP expression (% of the cells expressing GFP) ([2]; FIG. 2, C16-DOPE 2:1 with 10% cholesterol): 24%
